Biological target: T1, GST-17NAnk (GST-tagged N-terminal (1–305) zDHHC17) (murine, UniProt Q80TN5 1-305)
T1 construct: zDHHC17, murine cDNA, N-terminal residues 1–305 with the AR domain; also called GST-17Ank; GST-tagged AR-containing cytosolic region of zDHHC17; source: E. coli BL21(DE3)pLysS, purified (glutathione resin)
T1 sequence (looked up): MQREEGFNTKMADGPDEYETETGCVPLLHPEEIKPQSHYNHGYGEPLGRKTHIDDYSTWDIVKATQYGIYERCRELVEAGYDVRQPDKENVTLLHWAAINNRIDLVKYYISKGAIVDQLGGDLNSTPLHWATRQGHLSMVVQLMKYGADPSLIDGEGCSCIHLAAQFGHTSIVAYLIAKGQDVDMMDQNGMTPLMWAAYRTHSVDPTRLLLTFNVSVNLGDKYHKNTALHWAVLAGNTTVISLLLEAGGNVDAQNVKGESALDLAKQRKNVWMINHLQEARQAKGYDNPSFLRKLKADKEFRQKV
Assay: pull-down; 20 μg GST-17NAnk (or GST) on 10 μl glutathione-Sepharose, 20 μg His6-CSPα or His6-SNAP25b(93–206) (and competing amounts of the other), overnight at 4 °C, PBS washes, Coomassie staining
Conditions: both partners purified

- binding result: binds
B1: His6-CSPα (natural protein, bovine, UniProt Q29455 1-198, looked up)
chain: MADQRQRSLSTSGESLYHVLGLDKNATSDDIKKSYRKLALKYHPDKNPDNPEAADKFKEINNAHAILTDATKRNIYDKYGSLGLYVAEQFGEENVNTYFVLSSWWAKALFIFCGLLTCCYCCCCLCCCFNCCCGKCKPKAPEGEETEFYVSPEDLEAQLQSDEREAADTPIVIQPASATETTQLTADSHPSYHTDGFN
notes: CSPα, bovine cDNA; also called His-tagged CSPα; source: E. coli BL21(DE3)pLysS, purified (Ni2+-NTA)

— paper PMC4571948, “Identification of a Novel Sequence Motif Recognized by the Ankyrin Repeat Domain of zDHHC17/13 S-Acyltransferases*” (The Journal of Biological Chemistry, 2015)
